“And” between values parts separate entries of the source, which are not always exact repeats. Equal entries are not always repeated.
Tested on: HEK293T
Test: median enrichment of reporter reads in eGFP-reduced (low/intermediate) vs eGFP-high sorted cells (eGFP-extension fusion abundance) (ratio); higher = stronger loss of eGFP-fusion protein abundance (more destabilising extension)
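Further: lentiviral eGFP-IRES-mCherry reporter pool sorted by FACS 96 h post-transduction, gated on mCherry-high cells, Illumina read counts normalized per million, median across four biological replicates.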

Q: How did the median enrichment turn out when “CPDHGQGLPPCAPQLSPSKCVLRASLFFTAAATFPHCLRCREGQVPASTGISDKPRAQPTRGSSLHAHTGYGDGGLQVSSARG [SSNA1]” was run?
A: 7.23

Q: REALHLNLFMS [ERI2] was tested. Which median enrichment did it give?
A: 2.13

Q: With CRRPPGGGSGGRCVDPTASSSY [FRAT2] as the substance, how does the median enrichment read?
A: 0.875

Q: For “APLGLEFATGRILQRQVVPGPLLHPFSRRPCQRLHPVVNLVWRQRLRGWTSIVGQGLTLQGFCSWLWTPENPLLPSPNTRFLT [FAM110A]”, which median enrichment is on record?
A: 5.18

Q: For “LVWGPCQPAAPKPAPLPKQPRPLPLNPGPGRPGRPPVTAAAPALCRAALTCLPSQPLTSRLSLGQREPFGGAACLLWFWEG [FLNA]”, which median enrichment is on record?
A: 3.92

Q: How did the median enrichment turn out when LLLEIRLLQLDV [CDC27] was run?
A: 10.6

Q: With “GRRADSLAAPVLSPAILPYQGHWPLPSLCEGYFL [CYP2C18]” as the substance, how does the median enrichment read?
A: 17

Q: For “WSDCPENQKSKETRETSSLVNEPIKSRSLKKYVSVKKENRIVTVSSKTNKSKSSPLEHSESDTLGCDFEFQESIHSLSHLSYD [CEP78]”, which median enrichment is on record?
A: 1.3

Q: YAATDLGHLSQLAHPPPLPNFRYLSILLK [FBXL6] was tested. Which median enrichment did it give?
A: 5.29

Q: How did the median enrichment turn out when “CASTRAVGDSCPHLCPRAASCLALPPHSPPGMGLLLPGSLKETAAC [FAM160B2]” was run?
A: 6.35

Q: QSMF [TMEM196] was tested. Which median enrichment did it give?
A: 0.507

Q: With YEERDYLHIKNI [SLC35B1] as the substance, how does the median enrichment read?
A: 0.713

Q: How did the median enrichment turn out when SDVQDL [ZMPSTE24] was run?
A: 0.181

Q: Which median enrichment does the source give for LISLSKSIKRESSLQK [SYNGR4] here?
A: 8.85

Q: “LWRSLVRRQDFSGLCLNGPHLNFSPFFLFLALGKASFYQTYRERKLQG [CTCF]” was tested. Which median enrichment did it give?
A: 9.53

Q: With KKTSSR [LGALS2] as the substance, how does the median enrichment read?
A: 0.594

Q: How did the median enrichment turn out when YKSKNIFLKVMMHSFGW [CENPW] was run?
A: 4.27

Q: Which median enrichment does the source give for QEKAIWDLITLNRHANTVCVRALCIQ [PCDH9] here?
A: 6.25

Q: Which median enrichment does the source give for “LKNKSPLQNTPPSHSAPQLPTTARLSSFASVASPALHALAGTVAAAFSCSVMPSSCLKQKKIMHCVF [STXBP1]” here?
A: 6.42

Q: How did the median enrichment turn out when YQGPLDL [OR56A3] was run?
A: 0.714

Q: For LSLTASLK [TEX35], which median enrichment is on record?
A: 1.49

Q: For WLTLSLCCLLLS [SIRPB1], which median enrichment is on record?
A: 18.9

Q: Which median enrichment does the source give for QEPHALKKTWEDMVAWNCHPRIPC [ZIM3] here?
A: 3.53

Q: LPGAGGWTC [PTH1R] was tested. Which median enrichment did it give?
A: 1.02

Q: Which median enrichment does the source give for “QSTLTYFQKYNFRYHANFMTSKGCCYNVLTER [TDGF1]” here?
A: 6.46

Q: How did the median enrichment turn out when “YSASSNLVFSKKNIYYLFLACHFNSSRDFTAGIF [RBM48]” was run?
A: 41.8

Q: “YAQPGPQIRSAQQRPGPSSRTTRPHHASCSQTQN [CCDC27]” was tested. Which median enrichment did it give?
A: 0.132

Q: How did the median enrichment turn out when WNQS [CFHR1] was run?
A: 0.596

Q: Which median enrichment does the source give for SSSSSSSSSS [Ser10] here?
A: 0.553

Q: SPGEKL [ZNF322] was tested. Which median enrichment did it give?
A: 0.169

Q: For RHRGKRRKSC [CLDN1], which median enrichment is on record?
A: 0.381

Q: KPKEVPGTVSDLERSQKENNIIK [CELA2A] was tested. Which median enrichment did it give?
A: 0

Q: For CRL [ACADSB], which median enrichment is on record?
A: 4.42

Q: With LLKTCSTTVLDTH [ATF2] as the substance, how does the median enrichment read?
A: 8.11

Q: “EEITRWHQPRALARYGEGTWGPHLPPGLFREDPTVTPPSAVGAWRWAAGLNPPWGAPFLLPICVYIHK [MEF2B]” was tested. Which median enrichment did it give?
A: 6.73

Q: How did the median enrichment turn out when “WWRDTRGLATLWGNWHQELLHLVSAQVDLRKGWIPVPEHQIPRQLMRLAQCVTEAPGSQQSRAYSAHQAEQATGRDDASGQGS [CCDC137]” was run?
A: 7.53

Q: For CRFLLKLTLFHLSF [VHL], which median enrichment is on record?
A: 24.3 and 30.2

Q: For “WEDRPAASWSREASVIAHTQFRFPPLYRQEVNLPGAEHPPKESPLNNTPPPRQECPNPNDPSFPNE [EDN3]”, which median enrichment is on record?
A: 0.582

Q: How did the median enrichment turn out when “YRSRHLPQTWGGGPASSSTTLAPSLLTWVLAF [SCRIB]” was run?
A: 13.1

Q: How did the median enrichment turn out when ECLSIKSGFAP [NPL] was run?
A: 0.687

Q: Which median enrichment does the source give for “YLARPDPLGPFFFADNHCPAASGTSGSQGTQSSLLAVDFPLLLEPPIKEIQRDSCRPEAEHTFMAGALRGVLDPAPGDTIHFY [PLOD1]” here?
A: 9.08

Q: Which median enrichment does the source give for “QESSSRGTEDWGQEESGTQPSCPLTPGRPSPHPRVPQSYPLSACVARPDKHLQMAAAPTWDLPRRLEQKGLSLGWCFSSRVLG [TMEM141]” here?
A: 3.62

Q: With CELLPCPSFPPCTT [FEZF2] as the substance, how does the median enrichment read?
A: 0.681

Q: Which median enrichment does the source give for “LATATALPVRQAPKGGGGMAQEEGCEEEEGEMAVASGSALQL [FAM228A]” here?
A: 0.27

Q: With WHPCTQEDSAFTKHFHCLAKV [GPR12] as the substance, how does the median enrichment read?
A: 11.3

Q: With YVRTVG [UFD1] as the substance, how does the median enrichment read?
A: 3.02

Q: “WQKSKGHPVPGRLSGICSPVPGTKSSTAAVKKHALESLEHEEKQGLVHMFFGISL [IL1RAPL1]” was tested. Which median enrichment did it give?
A: 10.6

Q: With HHHHHHH [His07] as the substance, how does the median enrichment read?
A: 0.367

Q: YHCESITFSLSCSWTFCTENPGI [CREBBP] was tested. Which median enrichment did it give?
A: 33.7

Q: For YKE [DCAF17], which median enrichment is on record?
A: 0.608

Q: How did the median enrichment turn out when WLLITLSHFLVMH [KRTAP22-2] was run?
A: 13.9

Q: “LGLLHLPPSYLVPCRAPGLFGGTLGCTSGLPAPAAWAPPS [REEP4]” was tested. Which median enrichment did it give?
A: 5.64

Q: GGPSV [NDUFV3] was tested. Which median enrichment did it give?
A: 0.139

Q: With YHPSG [FAM183A] as the substance, how does the median enrichment read?
A: 0.527

Q: For QDLSIF [KCNJ13], which median enrichment is on record?
A: 0.364

Q: SCNPTRAHFIIAETSVCIPVITHCNRATN [IDO1] was tested. Which median enrichment did it give?
A: 4.95

Q: Which median enrichment does the source give for QKGRAQQCK [IRX2] here?
A: 1.1

Q: For SSLPWAG [TMEM266], which median enrichment is on record?
A: 5.32

Q: With WLSF [KRT28] as the substance, how does the median enrichment read?
A: 6.06

— the supplement of paper PMC11502859
